Measured values: publication PMC8519567
Where two headings read alike, the source gives them in different places. One block for each substance: values may come before it.

Key:
[1] = tested on: SMARCAD1 (dephosphorylated with CIP) (Homo sapiens); assay: FP
[2] = molecular target: 7 N11 nucleosome labeled at H4 E63C with Alexa Fluor 488 (human) (UniProt P04908); assay: fluorescence polarisation
[3] = molecular target: refolded histones H3-H4 labeled with Alexa Fluor 488 on H4 (human) (UniProt P68431); assay: fluorescence polarisation
[4] = molecular target: histones: H3-H4 (Alexa Fluor 488–H4) and H2A-H2B (Atto647N H2B) mixed at 10 nM (human); assay: FRET or BRET
[5] = molecular target: histones: H3-H4 (Alexa Fluor 488–H4) and H2A-H2B (Atto647N H2B) mixed at 10 nM (human); assay: FRET or BRET; remark: listed apart in the source

Substance: 7N11 nucleosome (165 bp), Alexa Fluor 488 at H4 E63C
Kd [1]: 90 nM

Substance: 147-bp 601 DNA
Kd [1]: 80 nM

Substance: TLH3 nucleosome (tailless H3)
Kd ([1]; H3 N-terminal tail deleted): 330 nM

Substance: TLH4 nucleosome (tailless H4)
Kd ([1]; H4 N-terminal tail deleted): 110 nM

Kd [2]: 90 nM | Kd [3]: 4 nM | Kd [4]: 1.3 nM | Kd [5]: 2.1 nM
Substance: dephosphorylated SMARCAD1 (from UniProt Q9H4L7 1-1026) (enzyme)
